Legend:
[1] = target: HLA-B*15:01; experiment: IEDB peptide-MHC binding, purified MHC/competitive/fluorescence; filed as Kd, often an IC50 or EC50 that approximates it; ≥ and ≤ were set here for values at or beyond the usual limits of such assays
[2] = target: HLA-B*40:02; experiment: IEDB peptide-MHC binding, purified MHC/competitive/radioactivity; filed as Kd, often an IC50 or EC50 that approximates it; ≥ and ≤ were set here for values at or beyond the usual limits of such assays
[3] = target: HLA-B*45:01; experiment: as above
[4] = target: HLA-B*44:03; experiment: as above
[5] = target: HLA-B*18:01; experiment: as above
[6] = target: HLA-B*44:02; experiment: as above
[7] = target: HLA-B*40:01; experiment: as above
[8] = target: HLA-A*26:01; experiment: IEDB peptide-MHC binding, purified MHC/competitive/fluorescence; filed as Kd, often an IC50 or EC50 that approximates it; ≥ and ≤ were set here for values at or beyond the usual limits of such assays
[9] = target: HLA-A*02:01; experiment: IEDB peptide-MHC binding, purified MHC/competitive/radioactivity; filed as Kd, often an IC50 or EC50 that approximates it; ≥ and ≤ were set here for values at or beyond the usual limits of such assays
[10] = target: HLA-A*68:02; experiment: as above
[11] = target: HLA-A*02:06; experiment: as above
[12] = target: HLA-A*02:03; experiment: as above
[13] = target: HLA-A*02:02; experiment: as above
[14] = target: HLA-B*15:01; experiment: as above
[15] = target: HLA-A*02:01; experiment: IEDB peptide-MHC binding, purified MHC/competitive/fluorescence; filed as Kd, often an IC50 or EC50 that approximates it; ≥ and ≤ were set here for values at or beyond the usual limits of such assays; settings: source organism: Lassa virus Josiah
[16] = target: HLA-A*32:01; experiment: IEDB peptide-MHC binding, purified MHC/competitive/radioactivity; filed as Kd, often an IC50 or EC50 that approximates it; ≥ and ≤ were set here for values at or beyond the usual limits of such assays
[17] = target: HLA-B*08:01; experiment: as above; settings: source organism: Dengue virus 3 Martinique/1243/1999
[18] = source organism: SARS coronavirus Tor2
[19] = source organism: Mammarenavirus juninense
[20] = source organism: Trypanosoma cruzi
[21] = source organism: Lymphocytic choriomeningitis virus (strain Armstrong)
[22] = source organism: Dengue virus 3 Martinique/1243/1999
[23] = source organism: Mammarenavirus machupoense
[24] = source organism: Mammarenavirus lassaense
[25] = source organism: Vaccinia virus WR

For AVDLSHFL, the Kd ([1]; source organism: Chloroflexus aurantiacus J-10-fl) was ≥ 20 µM.

CELYHYQECV was tested, and the Kd [2, 18] was 8.2 µM, the Kd [3, 18] was 0.425 µM and the Kd [4, 18] was 4.2 µM. For the same sequence, the Kd [5, 18] was ≥ 36.2 µM, the Kd [6, 18] was 7.85 µM and the Kd [7, 18] was 1.72 µM.

In the case of DICSGLQQL, the Kd ([8]; source organism: Escherichia coli O139:H28 str. E24377A) is reported as ≥ 20 µM.

Sequence EELIKLRFWF has a Kd [2, 19] of 10.4 µM, a Kd [3, 19] of 9.88 µM and a Kd [4, 19] of 0.132 µM. For the same sequence, the Kd [5, 19] was 0.748 µM, the Kd [6, 19] was 0.68 µM and the Kd [7, 19] was ≥ 36.7 µM.

With EEVAIILASF the Kd [2, 18] was 0.406 µM, the Kd [3, 18] was 1.39 µM and the Kd [4, 18] was 0.0192 µM. For the same sequence, the Kd [5, 18] was 0.108 µM, the Kd [6, 18] was 0.0776 µM and the Kd [7, 18] was 3.43 µM.

Work on EISSIISLM yielded a Kd ([8]; source organism: Bacillus anthracis str. A2012) of 0.0098 µM.

ELEALKTEL was tested, and the Kd ([9]; source organism: Homo sapiens) was ≥ 54.3 µM, the Kd ([10]; source organism: Homo sapiens) was 15.9 µM and the Kd ([11]; source organism: Homo sapiens) was ≥ 64.6 µM.

ELRLLIHQSL showed a Kd ([9]; source organism: Homo sapiens) of 1.51 µM, a Kd ([10]; source organism: Homo sapiens) of 1.13 µM and a Kd ([12]; source organism: Homo sapiens) of 1.58 µM.

EVLRPTTLV gave a Kd [9, 20] of 13.7 µM, a Kd [10, 20] of 0.0068 µM and a Kd [11, 20] of 1.46 µM. The Kd [13, 20] was 6.57 µM and the Kd [12, 20] was 5.48 µM.

FENAILSMT was tested, and the Kd [2, 21] was 0.0323 µM, the Kd [3, 21] was 1.82 µM and the Kd [4, 21] was 6.37 µM. It also gave a Kd [5, 21] of 3.3 µM, a Kd [6, 21] of 6.48 µM and a Kd [7, 21] of 18.4 µM.

Sequence FENAILSMTI has a Kd [2, 21] of 0.00631 µM, a Kd [3, 21] of 3.02 µM and a Kd [4, 21] of 0.388 µM. For the same sequence, the Kd [5, 21] was 0.126 µM, the Kd [6, 21] was 0.237 µM and the Kd [7, 21] was 1.45 µM.

FERDISNVPF gave a Kd [2, 18] of 1.95 µM, a Kd [3, 18] of 6.4 µM and a Kd [4, 18] of 0.629 µM. The Kd [5, 18] was 0.032 µM, the Kd [6, 18] was 0.578 µM and the Kd [7, 18] was 0.0203 µM.

Sequence FQRALIFILL has a Kd ([14]; source organism: Dengue virus 2 Jamaica/1409/1983) of 0.117 µM.

In the case of GDYFVLTSHT, the Kd [2, 18] is reported as ≥ 37.7 µM, the Kd [3, 18] is reported as ≥ 70 µM and the Kd [4, 18] is reported as ≥ 22.6 µM. For the same sequence, the Kd [5, 18] was ≥ 70.5 µM, the Kd [6, 18] was ≥ 50.9 µM and the Kd [7, 18] was ≥ 69.6 µM.

With GILKSILKV the Kd [15] was 0.0391 µM.

In the case of GLSRPLLRL, the Kd ([9]; source organism: Hepatitis B virus subtype ayw) is reported as ≥ 5 µM.

ILRHSTAHL showed a Kd ([1]; source organism: Bacillus anthracis str. A0488) of 0.142 µM.

For IQNSGGTSI, the Kd [14, 22] was 0.0257 µM.

With IVIGVGNSAL the Kd ([14]; source organism: Dengue virus 4 Dominica/814669/1981) was 0.0529 µM.

In the case of KEKAPDVGVL, the Kd [2, 23] is reported as 0.0649 µM, the Kd [3, 23] is reported as ≥ 30.9 µM and the Kd [4, 23] is reported as ≥ 62.1 µM. The Kd [5, 23] was ≥ 70.4 µM, the Kd [6, 23] was 2.41 µM and the Kd [7, 23] was 1.05 µM.

KENLYIKSI showed a Kd [2, 24] of 0.0191 µM, a Kd [3, 24] of 2.15 µM and a Kd [4, 24] of 0.118 µM. For the same sequence, the Kd [5, 24] was ≥ 28.8 µM, the Kd [6, 24] was 0.232 µM and the Kd [7, 24] was 14.2 µM.

Work on KLHSGVDVF yielded a Kd ([14]; source organism: Dengue virus 4 Philippines/H241/1956) of 0.00772 µM.

LEVKFNAPA gave a Kd [2, 18] of 0.00933 µM, a Kd [3, 18] of 0.00446 µM and a Kd [4, 18] of 6.01 µM. The Kd [5, 18] was 0.111 µM, the Kd [6, 18] was ≥ 21.3 µM and the Kd [7, 18] was 5.31 µM.

LGLNKIVRMY showed a Kd ([1]; source organism: Human immunodeficiency virus 1) of 1.96 µM.

LLLSINSSF showed a Kd ([16]; source organism: Variola virus) of 2.09 µM and a Kd ([14]; source organism: Variola virus) of 0.000883 µM.

In the case of LLWFLTGTF, the Kd [16, 25] is reported as 0.093 µM and the Kd [14, 25] is reported as 0.000776 µM.

In the case of LQWIASAIVL, the Kd [17] is reported as 4.97 µM and the Kd [14, 22] is reported as 0.00643 µM.

Sequence LTFDYVVTF has a Kd [16, 25] of 0.0172 µM and a Kd [14, 25] of 0.00245 µM.

For LVQYRILPM, the Kd [11, 25] was 4.67 µM, the Kd [13, 25] was 14.8 µM and the Kd [12, 25] was 1.17 µM. For the same sequence, the Kd [14, 25] was 0.0633 µM.

For MDGIQYGRSG, the Kd [2, 18] was ≥ 70.8 µM, the Kd [3, 18] was 10.9 µM and the Kd [4, 18] was ≥ 58.6 µM. The Kd [5, 18] was ≥ 70.5 µM, the Kd [6, 18] was ≥ 49.9 µM and the Kd [7, 18] was ≥ 69.6 µM.
